T1: mouse PD1 (mouse, UniProt Q02242 25-288)
T1 sequence (looked up): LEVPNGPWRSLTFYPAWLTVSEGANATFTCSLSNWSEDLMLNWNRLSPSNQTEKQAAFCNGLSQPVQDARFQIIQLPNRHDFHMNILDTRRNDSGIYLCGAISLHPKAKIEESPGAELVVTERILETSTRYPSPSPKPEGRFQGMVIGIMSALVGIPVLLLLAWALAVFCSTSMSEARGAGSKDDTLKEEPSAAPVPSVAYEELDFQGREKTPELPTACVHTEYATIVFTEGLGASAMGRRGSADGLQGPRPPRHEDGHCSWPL

T2: mouse CD20 (mouse, UniProt P19437 1-291)
T2 construct: whole, on cells; also called mCD20; murine CD20
T2 sequence (looked up): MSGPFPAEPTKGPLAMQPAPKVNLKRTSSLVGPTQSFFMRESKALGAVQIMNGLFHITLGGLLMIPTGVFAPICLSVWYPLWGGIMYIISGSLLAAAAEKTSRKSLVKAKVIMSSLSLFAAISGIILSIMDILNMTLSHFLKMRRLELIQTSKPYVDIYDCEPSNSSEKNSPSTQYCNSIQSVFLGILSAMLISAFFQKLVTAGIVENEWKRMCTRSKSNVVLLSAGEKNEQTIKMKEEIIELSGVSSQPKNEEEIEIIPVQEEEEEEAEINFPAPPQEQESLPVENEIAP

B1: 1 + 2 m20_mPL_1 (bispecific antibody, human IgG1, kappa)
heavy: QVQLQQPGAELVRPGTSVKLSCKASGYTFTSYWMHWIKQRPGQGLEWIGVIDPSDNYTKYNQKFKGKATLTVDTSSSTAYMQLSSLTSEDSAVYFCAREGYYGSSPWFAYWGQGTLVTVSSASTKGPSVFPLAPSSKSTSGGTAALGCLVKDYFPEPVTVSWNSGALTSGVHTFPAVLQSSGLYSLSSVVTVPSSSLGTQTYICNVNHKPSNTKVDKKVEPKSCDKTHTCPPCPAPEAEGAPSVFLFPPKPKDTLMISRTPEVTCVVVDVSHEDPEVKFNWYVDGVEVHNAKTKPREEQYNSTYRVVSVLTVLHQDWLNGKEYKCKVSNKALPSSIEKTISKAKGQPREPQVCTLPPSRDELTKNQVSLSCAVKGFYPSDIAVEWESNGQPENNYKTTPPVLDSDGSFFLVSKLTVDKSRWQQGNVFSCSVMHEALHNRFTQKSLSLSPGK
light: QIVMSQSPAILSASPGEKVTMTCRARSSVSYIHWYQQKPGSSPKPWIYATSNLASGVPGRFSGSGSGTSYSLTITRVEAEDAATYYCQQWSSKPPTFGGGTKLEIKRTVAAPSVFIFPPSDEQLKSGTASVVCLLNNFYPREAKVQWKVDNALQSGNSQESVTEQDSKDSTYSLSSTLTLSKADYEKHKVYACEVTHQGLSSPVTKSFNRGEC
chain: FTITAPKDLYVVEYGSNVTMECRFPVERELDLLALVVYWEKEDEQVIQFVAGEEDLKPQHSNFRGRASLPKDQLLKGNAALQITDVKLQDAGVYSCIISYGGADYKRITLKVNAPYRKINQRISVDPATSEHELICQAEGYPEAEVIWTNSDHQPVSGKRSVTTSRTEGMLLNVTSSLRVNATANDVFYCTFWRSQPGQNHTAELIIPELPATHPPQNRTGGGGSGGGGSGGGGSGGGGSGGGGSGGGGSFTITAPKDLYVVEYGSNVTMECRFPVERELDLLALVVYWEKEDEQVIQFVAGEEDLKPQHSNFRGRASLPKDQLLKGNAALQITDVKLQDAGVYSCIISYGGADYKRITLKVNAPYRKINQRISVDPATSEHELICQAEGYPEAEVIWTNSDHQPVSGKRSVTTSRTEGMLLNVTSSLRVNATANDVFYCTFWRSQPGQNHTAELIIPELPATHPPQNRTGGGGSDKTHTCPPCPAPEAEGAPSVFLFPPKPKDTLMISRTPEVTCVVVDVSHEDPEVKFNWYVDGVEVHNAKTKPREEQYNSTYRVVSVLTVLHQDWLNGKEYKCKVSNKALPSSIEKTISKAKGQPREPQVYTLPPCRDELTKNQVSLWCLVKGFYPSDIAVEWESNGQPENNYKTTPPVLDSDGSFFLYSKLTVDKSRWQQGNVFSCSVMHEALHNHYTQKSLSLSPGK
B2: 2 + 2 m20_mPL_3 (bispecific antibody, human IgG1, kappa)
heavy: QVQLQQPGAELVRPGTSVKLSCKASGYTFTSYWMHWIKQRPGQGLEWIGVIDPSDNYTKYNQKFKGKATLTVDTSSSTAYMQLSSLTSEDSAVYFCAREGYYGSSPWFAYWGQGTLVTVSSASTKGPSVFPLAPSSKSTSGGTAALGCLVKDYFPEPVTVSWNSGALTSGVHTFPAVLQSSGLYSLSSVVTVPSSSLGTQTYICNVNHKPSNTKVDKKVEPKSCDKTHTCPPCPAPEAEGAPSVFLFPPKPKDTLMISRTPEVTCVVVDVSHEDPEVKFNWYVDGVEVHNAKTKPREEQYNSTYRVVSVLTVLHQDWLNGKEYKCKVSNKALPSSIEKTISKAKGQPREPQVCTLPPSRDELTKNQVSLSCAVKGFYPSDIAVEWESNGQPENNYKTTPPVLDSDGSFFLVSKLTVDKSRWQQGNVFSCSVMHEALHNRFTQKSLSLSPGKGGGGSGGGGSGGGGSQVQLQQPGAELVRPGTSVKLSCKASGYTFTSYWMHWIKQRPGQGLEWIGVIDPSDNYTKYNQKFKGKATLTVDTSSSTAYMQLSSLTSEDSAVYFCAREGYYGSSPWFAYWGQGTLVTVSSASTKGPSVFPLAPSSKSTSGGTAALGCLVKDYFPEPVTVSWNSGALTSGVHTFPAVLQSSGLYSLSSVVTVPSSSLGTQTYICNVNHKPSNTKVDKKVEPKSCD
chain: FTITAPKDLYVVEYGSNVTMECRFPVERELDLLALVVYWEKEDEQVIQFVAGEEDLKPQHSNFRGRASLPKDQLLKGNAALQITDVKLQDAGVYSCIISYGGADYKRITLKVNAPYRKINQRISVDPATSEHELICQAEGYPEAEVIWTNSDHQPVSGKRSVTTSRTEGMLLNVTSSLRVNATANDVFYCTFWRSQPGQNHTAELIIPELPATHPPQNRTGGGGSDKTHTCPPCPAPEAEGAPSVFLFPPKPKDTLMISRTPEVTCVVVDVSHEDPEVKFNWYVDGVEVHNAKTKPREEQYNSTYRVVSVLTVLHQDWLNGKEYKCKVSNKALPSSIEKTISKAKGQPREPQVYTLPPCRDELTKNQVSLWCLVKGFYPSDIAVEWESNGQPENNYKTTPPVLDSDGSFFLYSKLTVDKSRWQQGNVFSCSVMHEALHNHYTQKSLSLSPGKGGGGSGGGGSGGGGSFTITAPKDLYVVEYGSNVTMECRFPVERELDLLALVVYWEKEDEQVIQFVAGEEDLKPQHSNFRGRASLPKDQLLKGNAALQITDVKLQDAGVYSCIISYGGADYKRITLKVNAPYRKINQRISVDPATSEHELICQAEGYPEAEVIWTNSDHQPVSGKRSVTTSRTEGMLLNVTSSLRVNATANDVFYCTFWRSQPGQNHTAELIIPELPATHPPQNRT
light: B1 light

How the values were obtained:
mouse PD1 [1] = target: T1, mouse PD1; assay: cell-based or functional assay
mouse CD20 = target: T2, mouse CD20; assay: flow cytometry on MC38/mCD20 cells
Experimental: (§1) Cells (HEK 293, MC38 over-expressing mCD20 or Jurkat over-expressing mPD1) were resuspended in FACS wash (PBS with 1% FBS) at 1×10⁸ cells/mL. The staining was performed in 1×10⁵ cells per well. The antibodies were diluted with a ratio of 1:5 from a starting concentration of 1.3×10⁻⁷ M. The diluted antibodies were then added into the wells containing cells. Cells were stained for 30 min at 2-8° C. and washed twice with FACS wash buffer. APC-conjugated goat anti-human IgG (Jackson Immuno Research, 109-607-003, 1:400) was added to stain the cells for 30 min at 2-8° C. Following washing, cells were fixed in 2% paraformaldehyde for 30 min at 2-8° C. After two washes, stained cells were analyzed using BD LSRFortessa™ FACS instrument. The results were analyzed by FlowJo. FSC/SSC gates were used to select mononuclear cells.

mouse PD1 [2] = target: T1, mouse PD1; assay: flow cytometry on Jurkat/mPD1 cells
Experimental: as §1

Binder | Max % inhibition, AP1-luciferase bioassay, 2.5 nM CD3 bsAb (mouse PD1 [1]) [%] | Max MFI (mouse CD20) [MFI] | EC50 (mouse PD1 [2]) [nM] | Max MFI (mouse PD1 [2]) [MFI] | IC50 (M), AP1-luciferase bioassay, 2.5 nM CD3 bsAb (mouse PD1 [1]) [M] | EC50 (mouse CD20) [nM]
B1 | 11 | 20300 | 22.4 | 16700 |  | 
B2 | 33 | 35300 | 6.31 | 6980 | 6.5e-11 | 8.42
